Assay results published in article PMC9716568, “The structure of His-tagged Geobacillus stearothermophilus purine nucleoside phosphorylase reveals a ‘spanner in the works’” (Acta Crystallographica. Section F, Structural Biology …, 2022).

Molecular target: the molecule itself
Experiment: crystal structure; His-GsePNPase crystallized without ligands, 25 mg/ml in 50 mM HEPES pH 7.6, 100 mM NaCl, sitting drop, 291 K; three chains in the asymmetric unit, the hexamer generated by crystallographic symmetry; 1.72 Å

B1: N-terminally His-tagged purine nucleoside phosphorylase from Geobacillus stearothermophilus (enzyme)
chain: MHHHHHHSSGLVPRGSGMKETAAAKFERQHMDSPDLGTGSENLYFQGAMMSVHIGAKAGEIAERILLPGDPLRAKYIAETFLEGAVCYNEVRGMLGFTGTYKGERISVQGTGMGVPSISIYVNELIQSYGVKTLIRVGTCGAIQPDVRVRDVILAMSASTDSNMNRLIFRGRDYAPTADFHLLRTAYEVGVEKGLALKVGNVFTADMFYNDEPNWETWARYGVLAVEMETAALYTLAAKFGCRALSVLTVSDHILTGEETTAEERQMTFNEMIEVALEAAIRNGA
notes: hexameric purine nucleoside phosphorylase of Geobacillus stearothermophilus, KEGG GT50_19015, the open reading frame; the printed residue numbers (His4, Arg43, Arg87, Asp203) count from the first Met of this part; The whole construct as printed has 285 residues; The tag was not cleaved in the crystallized protein; also called His-GsePNPase; GsePNPase; source: E. coli BL21 (DE3), purified (IMAC on …)
  stoichiometry N: 6
